According to patent publication US20250084152A1 (DUKE UNIVERSITY, published 2025):

What was measured:
Assay in all cases: ELISA on LAH peptide
[1] = molecular target: H3/X31 LAH peptide (LAH-Fc fusion protein) (Influenza A virus H3N2 A/Aichi/2/1968, UniProt P03436 421-475)
[2] = molecular target: B/MY04 LAH peptide (LAH-Fc fusion protein) (Influenza B virus B/Malaysia/2506/2004, UniProt P03461 425-480)
[3] = molecular target: H5/VN04 LAH peptide (LAH-Fc fusion protein) (Influenza A virus H5 A/Vietnam/1203/2004, UniProt P87506 416-472)

Measured: binding result

Chain of B/MY04 LAH peptide (LAH-Fc fusion protein) (P03461 425-480 limits assumed): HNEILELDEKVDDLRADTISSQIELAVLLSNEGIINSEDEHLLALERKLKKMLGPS
Chain of H5/VN04 LAH peptide (LAH-Fc fusion protein) (P87506 416-472 limits assumed): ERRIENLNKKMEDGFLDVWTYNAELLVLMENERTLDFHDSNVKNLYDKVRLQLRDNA
Chain of H3/X31 LAH peptide (LAH-Fc fusion protein) (P03436 421-475 limits assumed): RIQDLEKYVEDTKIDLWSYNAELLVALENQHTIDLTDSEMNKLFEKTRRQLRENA

B1: S1V2-72 (antibody, V domains shown)
VH: QVQLVQSGAELKKPGASVKVSCKASGYTFTGNYIHWMRQVPGQGLEWMGWINPRTGDTHHAQKFQGRVDMTRDTSINTAYLELTRLESDDTALYYCARCVFATSQFDPWGQGTLVTVSS
VL: QSALTQPASVSGSPGQSITISCTGTNSDIGSHNLVSWYQQHPGKAPKVMIYDDSKRPSGVSNRFSGSKSGSTASLTISGLQSEDEADYYCCSYAGSSNWVFGGGTKLTLL
no binding: all assays above
